The Human Domainome abundance scans (Beltran et al. 2025)
± gives the uncertainty stated by the source.

B1: Zinc finger protein ZIC 2, residues 250 to 295; numbered along this chain, O95409 (parent)
chain: QCIKQELICKWIDPEQLSNPKKSCNKTFSTMHELVTHVSVEHVGGP

Variants of: B1
Experiment: abundance fitness (aPCA) (normalised: wild type 0, dead -1); higher = more abundant; growth selection in yeast, the domain comes from the species named
Conditions: Homo sapiens

C24G and C24H are within error of each other in abundance fitness: -0.61 ± 0.088 for the first, -0.698 ± 0.16 for the second.

C24I and C24K are within error of each other in abundance fitness: -1.12 ± 0.18 for the first, -0.979 ± 0.13 for the second.

C24L and C24M are within error of each other in abundance fitness: -0.901 ± 0.1 for the first, -0.906 ± 0.12 for the second.

C24N and C24P are within error of each other in abundance fitness: -0.798 ± 0.16 for the first, -0.889 ± 0.13 for the second.

C24Q and C24R are within error of each other in abundance fitness: -0.764 ± 0.12 for the first, -0.841 ± 0.093 for the second.

C24S and C24T are within error of each other in abundance fitness: -0.766 ± 0.094 for the first, -0.8 ± 0.11 for the second.

C24V and C24W are within error of each other in abundance fitness: -0.86 ± 0.097 for the first, -0.868 ± 0.1 for the second.

Going from C24Y to N25A, the abundance fitness rises from -0.994 ± 0.13 to 0.507 ± 0.088.

First: N25D
Second: N25F
The abundance fitness of the first is higher: -0.047 ± 0.11 for the first, -0.517 ± 0.13 for the second.

N25G and N25H are within error of each other in abundance fitness: 0.3 ± 0.084 for the first, 0.183 ± 0.12 for the second.

First: N25I
Second: N25K
The abundance fitness of the first is lower: -0.469 ± 0.15 for the first, 0.044 ± 0.11 for the second.

N25L and N25M are within error of each other in abundance fitness: 0.083 ± 0.088 for the first, -0.019 ± 0.1 for the second.

N25P and N25Q are within error of each other in abundance fitness: 0.199 ± 0.099 for the first, 0.17 ± 0.11 for the second.

First: N25R
Second: N25T
The abundance fitness of the first is higher: 0.281 ± 0.088 for the first, 0.072 ± 0.1 for the second.

N25V and N25W are within error of each other in abundance fitness: -0.302 ± 0.088 for the first, -0.453 ± 0.099 for the second.

N25Y and T27A are within error of each other in abundance fitness: -0.33 ± 0.14 for the first, -0.116 ± 0.089 for the second.

Compared with T27C, T27D is higher in abundance fitness: -0.17 ± 0.099 for the first, 0.072 ± 0.11 for the second.

T27E and T27F are within error of each other in abundance fitness: 0.188 ± 0.097 for the first, 0.174 ± 0.11 for the second.

First: T27G
Second: T27H
The abundance fitness of the first is higher: 0.104 ± 0.083 for the first, -0.449 ± 0.14 for the second.

First: T27I
Second: T27L
The abundance fitness of the first is higher: 0.381 ± 0.11 for the first, -0.19 ± 0.089 for the second.

T27M and T27N are within error of each other in abundance fitness: 0.182 ± 0.094 for the first, 0.001 ± 0.11 for the second.

T27Q and T27R are within error of each other in abundance fitness: 0.119 ± 0.098 for the first, -0.025 ± 0.084 for the second.

T27S and T27V are within error of each other in abundance fitness: -0.001 ± 0.087 for the first, 0.06 ± 0.088 for the second.

Compared with T27W, T27Y is lower in abundance fitness: -0.296 ± 0.089 for the first, -0.818 ± 0.17 for the second.

F28A and F28C are within error of each other in abundance fitness: -0.811 ± 0.1 for the first, -0.725 ± 0.11 for the second.

Going from F28D to F28E, the abundance fitness rises from -0.914 ± 0.15 to -0.547 ± 0.1.

First: F28G
Second: F28H
The abundance fitness of the first is higher: -0.598 ± 0.089 for the first, -1.04 ± 0.15 for the second.

F28K and F28L are within error of each other in abundance fitness: -0.471 ± 0.11 for the first, -0.668 ± 0.092 for the second.

F28M and F28Q are within error of each other in abundance fitness: -0.683 ± 0.11 for the first, -0.705 ± 0.12 for the second.

F28R and F28S are within error of each other in abundance fitness: -0.84 ± 0.09 for the first, -0.887 ± 0.097 for the second.

F28T and F28V are within error of each other in abundance fitness: -0.631 ± 0.1 for the first, -0.724 ± 0.1 for the second.

Going from F28W to F28Y, the abundance fitness rises from -0.968 ± 0.1 to -0.724 ± 0.13.

First: S29A
Second: S29C
The abundance fitness of the first is higher: -0.086 ± 0.093 for the first, -0.337 ± 0.094 for the second.

S29D and S29E are within error of each other in abundance fitness: 0.352 ± 0.1 for the first, 0.425 ± 0.096 for the second.

Compared with S29F, S29G is higher in abundance fitness: -0.215 ± 0.1 for the first, 0.03 ± 0.084 for the second.

First: S29H
Second: S29I
The abundance fitness of the first is higher: 0.077 ± 0.12 for the first, -0.356 ± 0.14 for the second.

S29K and S29L are within error of each other in abundance fitness: 0.03 ± 0.11 for the first, 0.07 ± 0.092 for the second.

S29M and S29N are within error of each other in abundance fitness: -0.077 ± 0.11 for the first, -0.213 ± 0.13 for the second.

S29P and S29Q are within error of each other in abundance fitness: 0.209 ± 0.1 for the first, 0.114 ± 0.11 for the second.

Going from S29R to S29T, the abundance fitness rises from 0.236 ± 0.084 to 0.551 ± 0.11.

First: S29V
Second: S29W
The abundance fitness of the first is higher: -0.167 ± 0.091 for the first, -0.386 ± 0.095 for the second.

First: T30A
Second: T30C
The abundance fitness of the first is higher: 0.122 ± 0.096 for the first, -0.999 ± 0.16 for the second.

First: T30D
Second: T30E
The abundance fitness of the first is higher: -0.072 ± 0.12 for the first, -0.316 ± 0.12 for the second.

T30F and T30G are within error of each other in abundance fitness: -0.254 ± 0.14 for the first, -0.178 ± 0.092 for the second.

T30H and T30I are within error of each other in abundance fitness: -0.596 ± 0.14 for the first, -0.315 ± 0.16 for the second.

Compared with T30K, T30L is lower in abundance fitness: -0.389 ± 0.13 for the first, -0.802 ± 0.11 for the second.

Going from T30M to T30N, the abundance fitness rises from -0.765 ± 0.15 to 0.317 ± 0.12.

First: T30P
Second: T30Q
The abundance fitness of the first is lower: -0.923 ± 0.13 for the first, -0.159 ± 0.11 for the second.

T30R and T30S are within error of each other in abundance fitness: -0.418 ± 0.094 for the first, -0.273 ± 0.096 for the second.

Going from T30V to T30W, the abundance fitness falls from -0.429 ± 0.099 to -0.661 ± 0.12.

First: T30Y
Second: M31A
The abundance fitness of the first is lower: -0.96 ± 0.18 for the first, 0.12 ± 0.085 for the second.

First: M31C
Second: M31D
The abundance fitness of the first is lower: -0.569 ± 0.12 for the first, 0.334 ± 0.098 for the second.

Compared with M31E, M31G is lower in abundance fitness: 0.373 ± 0.089 for the first, 0.079 ± 0.083 for the second.

M31H and M31I are within error of each other in abundance fitness: 0.436 ± 0.13 for the first, 0.318 ± 0.1 for the second.

First: M31K
Second: M31L
The abundance fitness of the first is higher: 0.518 ± 0.097 for the first, -0.377 ± 0.088 for the second.

Going from M31N to M31P, the abundance fitness falls from 0.622 ± 0.11 to -0.079 ± 0.098.

M31Q and M31S are within error of each other in abundance fitness: 0.438 ± 0.095 for the first, 0.321 ± 0.089 for the second.

First: M31T
Second: M31V
The abundance fitness of the first is higher: 0.042 ± 0.099 for the first, -0.363 ± 0.086 for the second.

Going from M31W to H32A, the abundance fitness rises from -0.602 ± 0.096 to 0.14 ± 0.086.

Compared with H32C, H32D is higher in abundance fitness: -0.172 ± 0.1 for the first, 0.092 ± 0.098 for the second.

H32E and H32F are within error of each other in abundance fitness: 0.082 ± 0.096 for the first, 0.012 ± 0.11 for the second.

H32G and H32I are within error of each other in abundance fitness: -0.044 ± 0.086 for the first, -0.211 ± 0.12 for the second.

Going from H32K to H32L, the abundance fitness falls from -0.011 ± 0.11 to -0.471 ± 0.089.

First: H32M
Second: H32N
The abundance fitness of the first is lower: -0.263 ± 0.095 for the first, 0.275 ± 0.11 for the second.

H32P and H32R are within error of each other in abundance fitness: 0.171 ± 0.091 for the first, 0.084 ± 0.086 for the second.

H32S and H32T are within error of each other in abundance fitness: 0.011 ± 0.089 for the first, 0.037 ± 0.091 for the second.

Compared with H32V, H32W is higher in abundance fitness: -0.196 ± 0.087 for the first, 0.163 ± 0.094 for the second.

First: H32Y
Second: E33A
The abundance fitness of the first is lower: -0.573 ± 0.12 for the first, -0.342 ± 0.088 for the second.

Going from E33C to E33D, the abundance fitness rises from -0.777 ± 0.11 to 0.086 ± 0.1.

Compared with E33F, E33G is higher in abundance fitness: -1.03 ± 0.14 for the first, -0.166 ± 0.084 for the second.

First: E33H
Second: E33I
The abundance fitness of the first is higher: -0.434 ± 0.14 for the first, -0.932 ± 0.14 for the second.

E33K and E33L are within error of each other in abundance fitness: -0.615 ± 0.12 for the first, -0.735 ± 0.095 for the second.

E33M and E33N are within error of each other in abundance fitness: -0.751 ± 0.11 for the first, -0.726 ± 0.12 for the second.

Going from E33P to E33Q, the abundance fitness rises from -0.826 ± 0.12 to -0.046 ± 0.11.

Compared with E33R, E33S is higher in abundance fitness: -0.69 ± 0.09 for the first, -0.452 ± 0.092 for the second.

E33V and E33W are within error of each other in abundance fitness: -0.838 ± 0.092 for the first, -0.979 ± 0.1 for the second.

Going from E33Y to L34A, the abundance fitness rises from -1.01 ± 0.13 to -0.641 ± 0.091.

L34C and L34D are within error of each other in abundance fitness: -0.797 ± 0.12 for the first, -0.828 ± 0.13 for the second.

Going from L34E to L34F, the abundance fitness rises from -0.717 ± 0.1 to -0.039 ± 0.1.

L34G and L34H are within error of each other in abundance fitness: -0.618 ± 0.086 for the first, -0.569 ± 0.14 for the second.

Going from L34I to L34K, the abundance fitness rises from -0.79 ± 0.15 to -0.23 ± 0.1.

Going from L34M to L34N, the abundance fitness falls from 0.087 ± 0.095 to -0.733 ± 0.15.

L34P and L34Q are within error of each other in abundance fitness: -0.371 ± 0.11 for the first, -0.48 ± 0.12 for the second.

Work on L34R yielded an abundance fitness of -0.705 ± 0.089.
